Source: the supplement of paper PMC6757056
± gives the standard deviation of the averaged measurements.

B1: library; a variant is named by its letters at N, in order (parent)
chain: GCUGUCACCGAGAAACUGUGAAGUAUAUCUUAAACCUGGGCACUUAAAAGAUAUAUGGAGUUAGUAGUGCAACCUGCUCGGUCUGAUGAGUCCNNNNNNGGACGAAACAGC

Legend:
cyclic di-GMP [1] = variants of: B1; assay: normalized RNA/DNA level without ligand (relative to sTRSVctl = 100) (log10 (% of sTRSVctl)); HEK293T; ligand: cyclic di-GMP (c-di-GMP-II aptamer); higher = less ribozyme self-cleavage, higher mRNA level; conditions: reporter: mCherry (pCS4076), ligand present: no
Procedure, shortened: (§1)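 Total RNA, extracted with EDTA 72 h after HEK293T cells were transfected with 4 µg per 6-well well of reporter-linked ribozyme switch library plasmids, was reverse-transcribed, amplified, barcoded and sequenced. Ligand, if used, was added 1 h before transfection. RNA level was derived from RNA reads divided by DNA reads and normalized to a spiked-in non-cleaving sequence or to the top sequences. This was multiplied by 100 and log10-transformed, with the top set of 25 sequences and a ≥100 DNA read minimum.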

cyclic di-GMP [2] = variants of: B1; assay: normalized RNA/DNA level with ligand (relative to sTRSVctl = 100) (log10 (% of sTRSVctl)); HEK293T; ligand: cyclic di-GMP (c-di-GMP-II aptamer); ligand concentration (+) RNA-Seq: 1 mM; higher = less ribozyme self-cleavage, higher mRNA level; conditions: reporter: mCherry (pCS4076), ligand present: yes
Procedure, shortened: as §1

Variant	normalized RNA/DNA level without ligand (log10) (cyclic di-GMP [1])	normalized RNA/DNA level with ligand (log10) (cyclic di-GMP [2])
GCUGUCACCGAGAAACUGUGAAGUAUAUCUUAAACCUGGGCACUUAAAAGAUAUAUGGAGUUAGUAGUGCAACCUGCUCGGUCUGAUGAGUCCACACUCGGACGAAACAGC [ACACUC]	1.637 ± 0.0033	1.77 ± 0.11
GCUGUCACCGAGAAACUGUGAAGUAUAUCUUAAACCUGGGCACUUAAAAGAUAUAUGGAGUUAGUAGUGCAACCUGCUCGGUCUGAUGAGUCCCCACGUGGACGAAACAGC [CCACGU]	1.64 ± 0.046	1.81 ± 0.13
GCUGUCACCGAGAAACUGUGAAGUAUAUCUUAAACCUGGGCACUUAAAAGAUAUAUGGAGUUAGUAGUGCAACCUGCUCGGUCUGAUGAGUCCCCACGGGGACGAAACAGC [CCACGG]	1.79 ± 0.058	1.89 ± 0.037
GCUGUCACCGAGAAACUGUGAAGUAUAUCUUAAACCUGGGCACUUAAAAGAUAUAUGGAGUUAGUAGUGCAACCUGCUCGGUCUGAUGAGUCCACACGUGGACGAAACAGC [ACACGU]	1.62 ± 0.043	1.83 ± 0.081
GCUGUCACCGAGAAACUGUGAAGUAUAUCUUAAACCUGGGCACUUAAAAGAUAUAUGGAGUUAGUAGUGCAACCUGCUCGGUCUGAUGAGUCCGCACGUGGACGAAACAGC [GCACGU]	1.49 ± 0.07	1.7 ± 0.12
GCUGUCACCGAGAAACUGUGAAGUAUAUCUUAAACCUGGGCACUUAAAAGAUAUAUGGAGUUAGUAGUGCAACCUGCUCGGUCUGAUGAGUCCGCACGGGGACGAAACAGC [GCACGG]	1.55 ± 0.053	1.66 ± 0.12
GCUGUCACCGAGAAACUGUGAAGUAUAUCUUAAACCUGGGCACUUAAAAGAUAUAUGGAGUUAGUAGUGCAACCUGCUCGGUCUGAUGAGUCCCCACUGGGACGAAACAGC [CCACUG]	1.39 ± 0.042	1.63 ± 0.12
GCUGUCACCGAGAAACUGUGAAGUAUAUCUUAAACCUGGGCACUUAAAAGAUAUAUGGAGUUAGUAGUGCAACCUGCUCGGUCUGAUGAGUCCCCACUCGGACGAAACAGC [CCACUC]	1.7 ± 0.022	1.8 ± 0.1
GCUGUCACCGAGAAACUGUGAAGUAUAUCUUAAACCUGGGCACUUAAAAGAUAUAUGGAGUUAGUAGUGCAACCUGCUCGGUCUGAUGAGUCCGCACUGGGACGAAACAGC [GCACUG]	1.54 ± 0.092	1.75 ± 0.074
GCUGUCACCGAGAAACUGUGAAGUAUAUCUUAAACCUGGGCACUUAAAAGAUAUAUGGAGUUAGUAGUGCAACCUGCUCGGUCUGAUGAGUCCUCACGGGGACGAAACAGC [UCACGG]	1.82 ± 0.07	1.9 ± 0.1
GCUGUCACCGAGAAACUGUGAAGUAUAUCUUAAACCUGGGCACUUAAAAGAUAUAUGGAGUUAGUAGUGCAACCUGCUCGGUCUGAUGAGUCCUCACGCGGACGAAACAGC [UCACGC]	1.7 ± 0.045	1.84 ± 0.08
GCUGUCACCGAGAAACUGUGAAGUAUAUCUUAAACCUGGGCACUUAAAAGAUAUAUGGAGUUAGUAGUGCAACCUGCUCGGUCUGAUGAGUCCUCACUCGGACGAAACAGC [UCACUC]	1.73 ± 0.068	1.89 ± 0.12
GCUGUCACCGAGAAACUGUGAAGUAUAUCUUAAACCUGGGCACUUAAAAGAUAUAUGGAGUUAGUAGUGCAACCUGCUCGGUCUGAUGAGUCCUCACUAGGACGAAACAGC [UCACUA]	1.51 ± 0.022	1.73 ± 0.099
